Data on 2 compounds can be found in patent US20030161791A1, “Water-soluble polymer conjugates of retinoic acid” (priority 2001, published 2003).

The nature of data set [1]: Hydrolysis rate of PEG-ATRA ester conjugate in phosphate buffer. Particulars: phosphate buffer 0.1M, pH 7.0, 0.5 wt %, pseudo-first-order kinetics. The format is physicochemical. Here is the method: The rate of hydrolysis in buffer of an exemplary PEG-ATRA conjugate in accordance with the invention was determined at two different temperatures, room temperature and body temperature.
MPEG 5 kDa ATRA (see Example 1) was dissolved in phosphate buffer (0.1M, pH 7.0) at a concentration of 0.5 wt % at temperatures of 23° C. and 37° C. At timed intervals, aliquots were removed for analysis by analytical reverse phase HPLC. The hydrolysis half-lives were obtained using pseudo-first-order kinetics. […] Thus, these conjugates can be characterized as water-soluble prodrugs forms of the retinoid.

Data set [2] is described as follows: Stability (degradation) of PEG-retinoid compositions versus unmodified parent retinoid. In kind it is physicochemical. The settings on record: without free radical scavenger. From the text: Additionally, a composition in accordance with the invention will preferably contain a free radical scavenger such as butylatedhydroxytoluene (BHT), ascorbic acid (vitamin C), or alpha tocopherol […]. […] Incorporation of a free radical scavenger in the composition was effective to substantially reduce or effectively eliminate free-radical induced degradation of the conjugate.

Data set [3] is described as follows: Recovery of ATRA and conjugate in plasma and lung tissue after intratracheal instillation in male rats. The format is in vivo, Sprague Dawley Rats. Here is the method: The following study in rats was conducted to determine plasma and lung tissue concentrations of non-PEGylated all-trans retinoic acid (ATRA control) versus a PEGylated all-trans retinoic acid, mPEG (5 kD)ATRA Ester Conjugate, after intratracheal instillation to male rats.
Animals: Hilltop Lab Animals Inc (P.O. Box 183, Scottdale, Pa. 15683) supplied pre-cannulated jugular vein catheter [JVC]) Sprague Dawley Rats (350-375 grams). The test system included 2 male rats randomly chosen for each of the 6 test groups.
ATRA and PEG-ATRA Samples: Non-PEGylated All-Trans Retinoic Acid was supplied as a powder containing 50% ATRA by weight (Control Article). The powder was stored at −20° C. and protected from light. Methoxy PEG (5 kD) ATRA ester conjugate (Test Article) was provided as a powder containing 5% ATRA by weight which was stored at −20° C. and protected from light.
ATRA Stock Solution/Control (2.0 mg/ml Stock): 3.0 mL of PBS was added to 6.0 mg of the ATRA powder. This solution was dosed as a suspension to the rats after sonication and vortexing.
Methoxy PEG (5 kD) ATRA ester conjugate (20.0 mg/mL Stock): 3.0 mL of PBS was added to 60.0 mg of the methoxy PEG (5 kD) ATRA ester conjugate powder.
Intratracheal Instillation: Administration of the control and test articles was achieved by intratracheal instillation under yellow lighting. The rats were lightly anesthetized using inhaled 3.0-5.0% isoflurane mixed with oxygen in a plexiglass anesthesia chamber. The dose was administered by inserting a gavage needle fitted with a 1 mL syringe into the mouth of the rat down the trachea to just above the carina. The dose was administered into the lungs utilizing this method, and then the gavage needle was removed. The animal was placed back in its cage and allowed to recover from the anesthesia on its own after the dosing procedure.
Rats were dosed IT with 354 μg (1.2 μmole) of RA or […] (1 μmole) ATRA equivalent of mPEG5K-ATRA.
Blood Collection: Predose blood samples of approximately 3.0 ml were collected from the jugular vein catheter into heparinized plasma tubes. At the designated sacrifice time for each animal a surgical plane of anesthesia was induced by using inhaled 3.0-5.0% isofluorane mixed with oxygen. […]
ATRA and PEG-ATRA were extracted from whole rat lung by first weighing and transferring the rat lung to an amber vial and cutting the lung into small pieces. […] The sample was then analyzed by HPLC.
Sample Analysis: Plasma and lung tissue samples were analyzed for all-trans retinoic acid concentrations by reverse-phase high performance liquid chromatography (HPLC) procedures for the lung tissue and by a liquid chromatography tandem mass spectrophotometer (LC-MS-MS) technique for the plasma samples. […]

Regarding “mPEG (5 kDa) ATRA Ester Conjugate [Example 1]”, the results for the “half-life (t 1/2) of the hydrolysis” value in data set [1] (23° C.) and in data set [1] (37° C.) were “about 3500 hours” and “about 877 hours”, respectively. Further, the “stability of the composition relative to compositions of the unmodified parent retinoid” value in data set [2] is listed as “more prone to degradation”. In data set [3] (rat plasma, one-hour timepoint, LC-MS-MS), the “plasma retinoic acid (ATRA) concentration” value is listed as “approximately 65 ng/ml”. For the same compound, in data set [3] (rat, for at least up to 2 hours post administration, HPLC of lung tissue), the “retained in the lung” value was “greater than 70 % of the dose”.

Turning to `CC1=C(/C=C/C(C)=C/C=C/C(C)=C/C(=O)O)C(C)(C)CCC1` [ATRA, all trans retinoic acid, reference compound], the concentration at 1 h in data set [3] (male, Sprague Dawley, other: intratracheal instillation, 354 μg, rat plasma, one-hour timepoint, LC-MS-MS, read-out: plasma retinoic acid (ATRA) concentration) is ~145 ng/mL. Also, the “retention in the lung compared with pegylated / unmodified counterpart” value in data set [3] (rat, lung tissue (FIG. 3)) is “to a lesser degree”.
